Reference: patent publication US20210155689A1 (SHANGHAI PHARMAEXPLORER, published 2021)
Changes are numbered by the printed parent chain.

T1: monkey LAG-3 (full length, on the cell surface) (monkey, UniProt P18627 24-525 (human entry))
T1 construct: also called HEK293-cLAG-3; monkey LAG-3 protein on the cell surface
T1 chain: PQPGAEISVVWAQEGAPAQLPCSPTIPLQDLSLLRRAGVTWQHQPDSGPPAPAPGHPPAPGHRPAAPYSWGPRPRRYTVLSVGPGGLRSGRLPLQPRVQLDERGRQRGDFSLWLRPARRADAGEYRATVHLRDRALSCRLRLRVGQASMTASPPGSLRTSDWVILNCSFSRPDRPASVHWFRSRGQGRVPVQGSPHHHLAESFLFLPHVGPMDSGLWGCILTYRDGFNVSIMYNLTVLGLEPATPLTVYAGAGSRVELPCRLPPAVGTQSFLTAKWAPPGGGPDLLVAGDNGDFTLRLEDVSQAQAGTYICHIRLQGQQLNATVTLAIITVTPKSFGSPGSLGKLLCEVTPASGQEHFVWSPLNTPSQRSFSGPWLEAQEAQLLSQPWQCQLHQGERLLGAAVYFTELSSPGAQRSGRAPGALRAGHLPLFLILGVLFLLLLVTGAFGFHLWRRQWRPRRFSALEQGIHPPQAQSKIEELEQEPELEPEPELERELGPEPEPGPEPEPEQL

T2: monkey LAG-3 on cells (HEK293-cLAG-3 stable cell line) (monkey, UniProt P18627 24-525 (human entry))
T2 construct: Full-length monkey (Chinese monkey) LAG-3 gene expressed on HEK293 cells
T2 chain: T1 chain

T3: hFc tagged monkey LAG-3 protein (cLAG-3-hFc protein) (monkey; human)
T3 construct: Made in HEK293 cells; also called monkey LAG-3 extracellular domain protein; not shown: human IgG Fc fragment (hFc) of the pCpC vector
T3 chain: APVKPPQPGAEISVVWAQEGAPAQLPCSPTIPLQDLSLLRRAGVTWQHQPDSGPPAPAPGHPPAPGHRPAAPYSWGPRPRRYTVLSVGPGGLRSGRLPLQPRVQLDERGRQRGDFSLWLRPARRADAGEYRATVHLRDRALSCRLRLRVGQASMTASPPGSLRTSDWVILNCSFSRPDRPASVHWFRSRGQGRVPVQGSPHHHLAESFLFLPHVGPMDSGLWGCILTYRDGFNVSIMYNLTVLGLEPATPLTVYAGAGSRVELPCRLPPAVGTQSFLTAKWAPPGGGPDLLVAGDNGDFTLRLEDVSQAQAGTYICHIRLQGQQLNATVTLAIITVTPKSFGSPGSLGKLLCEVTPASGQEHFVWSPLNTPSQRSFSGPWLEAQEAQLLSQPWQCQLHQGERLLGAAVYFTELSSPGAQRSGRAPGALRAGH

T4: human LAG-3 on cells (HEK293-hLAG-3 stable cell line) (human, UniProt P18627 23-525)
T4 sequence: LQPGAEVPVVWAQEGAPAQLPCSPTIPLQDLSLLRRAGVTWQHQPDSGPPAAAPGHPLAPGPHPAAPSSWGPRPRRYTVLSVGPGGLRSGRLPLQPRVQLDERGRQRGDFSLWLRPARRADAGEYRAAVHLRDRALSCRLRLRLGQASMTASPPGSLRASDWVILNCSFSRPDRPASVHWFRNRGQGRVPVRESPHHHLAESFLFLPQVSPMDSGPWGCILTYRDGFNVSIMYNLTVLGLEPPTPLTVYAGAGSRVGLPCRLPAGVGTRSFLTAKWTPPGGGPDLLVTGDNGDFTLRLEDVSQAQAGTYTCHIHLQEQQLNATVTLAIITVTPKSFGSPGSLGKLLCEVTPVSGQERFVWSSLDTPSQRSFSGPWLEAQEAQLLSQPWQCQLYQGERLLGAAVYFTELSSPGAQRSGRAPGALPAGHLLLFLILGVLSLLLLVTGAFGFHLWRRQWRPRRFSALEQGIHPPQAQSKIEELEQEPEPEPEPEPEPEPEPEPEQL

B1: 405B8H3 (mouse antibody purified from hybridoma) (antibody, V domains shown)
VH: QVQLQQSGAELVRPGASVTLSCKASGYTFTDYEMHWVKQTPVHGLEWIGATDPETGNSAYNQKFKGKAIMTADKSSSTAYMELRSLTSEDSAVYYCISTGWNDWGQGTSLTVSS
VL: DIKMTQSPSSMYASLGERVTITCKASQDINSYLSWFQQKPGKSPKTLIYRADRLLDGVPSRFSGSGSGQDYSLTISSLEYGDMGIYYCLQYDEFPYTFGGGTKLEIK
notes: also called mAb103-405B8H3; 405B81-13
B2: 105F1E10 (mouse antibody purified from hybridoma) (antibody, V domains shown)
VH: EVQLQQSGPELVKPGASVKMSCRASGYTFTDFKMHWMKQSHGKSLEWIGYIAPNNGGTAYNQKFRGKATLTVNESSNTAYMELRSLTSEDSAVYYCVDWDDVDYWGQGTTLTVSS
VL: B1 VL with P40S, D52N, L55V, G81E, D92V, Y96L, G100A, I106L
notes: also called mAb009-105F1E10
B3: 409D4E10 (mouse antibody purified from hybridoma) (antibody, V domains shown)
VH: B1 VH with Y27N, G56D, S58T, M70L, A72T, S98T, T99S
VL: B1 VL with D52N, G81E, D92N
notes: also called mAb112-409D4E10
B4: 409B11E12 (mouse antibody purified from hybridoma) (antibody, V domains shown)
VH: B1 VH with P41T, G56S, N57Y, M70L, S98A
VL: B1 VL with I2L, D52N, G81E
notes: also called mAb104-409B11E12
B5: 556F6B8 (mouse antibody purified from hybridoma) (antibody, V domains shown)
VH: RVQLKQSGPGLVQPSQSLSITCTVSGFSLIKYGVHWVRQSPGEGLEWLGVIWRGGITDYNAAFMSRLSITKDNSKSQVFFKMNSLQADDTAIYYCAKWDGPLAMDYWGQGTSVTVSS
VL: DIVMTQSHKFLSTSVGDRVSITCKASQDVGTTVAWYQQKPGQSPKLLIYWASTRHTGVPDRFTGSGSGTDFTLTISNVQSEDLADYFCQQYSSYPYTFGGGTKLEIK
notes: also called mAb123-556F6B8
B6: 105F1E10 mouse-human chimeric antibody (antibody, V domains shown)
VH: B2 VH
VL: B1 VL with P40S, D52N, L55V, G81E, D92V, Y96L, G100A, I106L
notes: also called mAb009-105F1E10
B7: 405B8H3 mouse-human chimeric antibody (antibody, V domains shown)
VH: B1 VH
VL: B1 VL
notes: also called mAb103-405B8H3
B8: 409B11E12 mouse-human chimeric antibody (antibody, V domains shown)
VH: B1 VH with P41T, G56S, N57Y, M70L, S98A
VL: B1 VL with I2L, D52N, G81E
notes: also called mAb104-409B11E12
B9: 409D4E10 mouse-human chimeric antibody (antibody, V domains shown)
VH: B1 VH with Y27N, G56D, S58T, M70L, A72T, S98T, T99S
VL: B1 VL with D52N, G81E, D92N
notes: also called mAb112-409D4E10
B10: 556F6B8 mouse-human chimeric antibody (antibody, V domains shown)
VH: B5 VH
VL: B5 VL
notes: also called mAb123-556F6B8; 556F8B8
B11: 105F1E10 (LAG-3 mouse-human chimeric antibody) (antibody, V domains shown)
VH: B2 VH
VL: B1 VL with P40S, D52N, L55V, G81E, D92V, Y96L, G100A, I106L
B12: 405B8H3 (LAG-3 mouse-human chimeric antibody) (antibody, V domains shown)
VH: B1 VH
VL: B1 VL
notes: also called mouse-human chimeric antibody 405B8H3
B13: 409B11E12 (LAG-3 mouse-human chimeric antibody) (antibody, V domains shown)
VH: B1 VH with P41T, G56S, N57Y, M70L, S98A
VL: B1 VL with I2L, D52N, G81E
B14: 409D4E10 (LAG-3 mouse-human chimeric antibody) (antibody, V domains shown)
VH: B1 VH with Y27N, G56D, S58T, M70L, A72T, S98T, T99S
VL: B1 VL with D52N, G81E, D92N
B15: 556F6B8 (LAG-3 mouse-human chimeric antibody) (antibody, V domains shown)
VH: B5 VH
VL: B5 VL
notes: also called 556F8B8

Biological target: T1, monkey LAG-3 (full length, on the cell …)
Assay: FACS, HEK293-cLAG-3; 8.000 nM
Text: (§1) The pIRES plasmid with the monkey-derived full-length gene was transfected into the HEK293 cell line to construct a HEK293 stable cell line containing monkey LAG-3 (herein referred to as HEK293-cLAG-3 stable cell line). The HEK293-hLAG-3 stable cell line and HEK293-cLAG-3 stable cell line were expanded in a T-75 cell culture flask to a 90% confluence. The medium was aspirated, and the cells were washed with HBSS (Hanks' Balanced Salt Solution) 1-2 times, then treated with a enzyme-free cell dissociation fluid (Versene solution: Life technology) and the cells were collected. The cells were washed with HBSS buffer for 1-2 times. After counted, the cells were diluted with HBSS to 1-2×10⁶ cells per ml, added with 1% goat serum blocking solution, incubated on ice for 20-30 minutes, and then washed with HBSS for 2 times by centrifugation. The collected cells were suspended in the FACS buffer (HBSS+1% BSA) to 2×10⁶ cells/ml, added as 100 microliters per well to a 96-well FACS reaction plate, added with 100 microliters per well of the antibody sample to be tested, incubated on ice for 1-2 hours. The plate was washed twice with the FACS buffer by centrifugation, added with 100 microliters of fluorescent (Alexa 488)-labeled secondary antibodies per well, and incubated on ice for 0.5-1.0 hours. The plate was washed 2-3 times with FACS buffer by centrifugation, added with 100 μl fixative solution (4% Paraformaldehyde) per well to suspend the cells. 5-10 minutes later, it was washed 1-2 times with FACS buffer by centrifugation. The cells were suspended with 100 microliters of FACS buffer, FACS (FACSCalibur, BD) was used for detection and the results were analyzed.

Row | Binder | Mean fluorescence intensity [MFI]
1 | B1 | 61.4
2 | B2 | 44.6
3 | B3 | 93.8
4 | B4 | 69.9
5 | B5 | 46.7

Biological target: T2, monkey LAG-3 on cells (HEK293-cLAG-3 …)
Assay: FACS, HEK293-cLAG-3, antibody 40.000 nM
Text: as §1

Row | Binder | Mean fluorescence intensity
6 | B6 | 64.6
7 | B7 | 90.8
8 | B8 | 108
9 | B9 | 93.4
10 | B10 | 74.4

Biological target: T3, hFc tagged monkey LAG-3 protein …
Assay: ELISA, cLAG-3-hFc coated; 6.6667 nM
Description: The plate was sealed with plastic film and incubated overnight at 4° C. The plate was washed 2 times with the plate washing solution (PBS+0.01% Tween20) on the next day, and added with the blocking solution (PBS+0.01% Tween20+1% BSA) and blocked at room temperature for 1-2 hours. The blocking solution was poured out, and the plate was added with 50-100 μl of the antibody sample to be tested to each well, incubated at 37° C. for 1-2 hours, and washed 2-3 times with a plate washing solution (PBS+0.01% Tween20). HRP (horseradish peroxidase) labeled secondary antibody was added, and the plate was incubated at 37° C. for 1-2 hours, and washed 2-3 times with a plate washing solution (PBS+0.01% Tween20). 100 μl of TMB substrate was added to each well. After incubated at room temperature for 15-30 minutes, the plate was added with 100 μl of stop solution (1.0N HCl) to each well.

Row | Binder | OD450 [OD450]
11 | B11 | 3.53
12 | B12 | 3.55
13 | B13 | 3.47
14 | B14 | 3.79
15 | B15 | 3.78

What follows are binders tested against T4, human LAG-3 on cells (HEK293-hLAG-3 …) (assay: FACS, HEK293-hLAG-3, antibody 1.600 nM).
Text: as §1

Row | Binder | Mean fluorescence intensity
16 | B6 | 34.7
17 | B7 | 62.3
18 | B8 | 69
19 | B9 | 56.8
20 | B10 | 39.1

Biological target: T1, monkey LAG-3 (full length, on the cell …)
Assay: FACS, HEK293-cLAG-3; 0.013 nM
Text: as §1

Row | Binder | Mean fluorescence intensity [MFI]
21 | B1 | 4.2
22 | B2 | 4.1
23 | B3 | 3.5
24 | B4 | 3.3
25 | B5 | 3.9
